The target of assay [1] is T1, TCL1 70-79, alanine replacement at position 9 peptide on HLA-A*02:01 (human).
T1 peptide: SLLPIMWQAY
Nature of the assay: cytokine release.

The target in assay [2] is T2, TCL1 70-79, alanine replacement at position 10 peptide on HLA-A*02:01 (human).
T2 peptide: SLLPIMWQLA
In words: cytokine release.

Assay [3] has as its target T3, TCL1 70-79, glycine replacement at position 1 peptide on HLA-A*02:01 (human).
T3 peptide: GLLPIMWQLY
In words: cytokine release.

For assay [4], the target named is T4, TCL1 70-79, glycine replacement at position 2 peptide on HLA-A*02:01 (human).
T4 peptide: SGLPIMWQLY
In words: cytokine release.

Assay [5] concerns the target T5, TCL1 70-79, glycine replacement at position 3 peptide on HLA-A*02:01 (human).
T5 peptide: SLGPIMWQLY
In words: cytokine release.

Assay [6] deals with T6, TCL1 70-79, glycine replacement at position 4 peptide on HLA-A*02:01 (human).
T6 peptide: SLLGIMWQLY
In words: cytokine release.

Assay [7] concerns the target T7, TCL1 70-79, glycine replacement at position 5 peptide on HLA-A*02:01 (human).
T7 peptide: SLLPGMWQLY
In words: cytokine release.

In assay [8] the target is T8, TCL1 70-79, glycine replacement at position 6 peptide on HLA-A*02:01 (human).
T8 peptide: SLLPIGWQLY
In words: cytokine release.

The target of assay [9] is T9, TCL1 70-79, glycine replacement at position 7 peptide on HLA-A*02:01 (human).
T9 peptide: SLLPIMGQLY
In words: cytokine release.

Assay [10] addresses T10, TCL1 70-79, glycine replacement at position 8 peptide on HLA-A*02:01 (human).
T10 peptide: SLLPIMWGLY
In words: cytokine release.

Assay [11] deals with T11, TCL1 70-79, alanine replacement at position 1 peptide on HLA-A*02:01 (human).
T11 peptide: ALLPIMWQLY
Nature of the assay: cytokine release.

For assay [12], the target named is T12, TCL1 70-79, glycine replacement at position 9 peptide on HLA-A*02:01 (human).
T12 peptide: SLLPIMWQGY
Nature of the assay: cytokine release.

Assay [13] concerns the target T13, TCL1 70-79, glycine replacement at position 10 peptide on HLA-A*02:01 (human).
T13 peptide: SLLPIMWQLG
In words: cytokine release.

Assay [14] concerns the target T14, TCL1 70-79, alanine replacement at position 2 peptide on HLA-A*02:01 (human).
T14 peptide: SALPIMWQLY
In words: cytokine release.

For assay [15], the target named is T15, TCL1 70-79, alanine replacement at position 3 peptide on HLA-A*02:01 (human).
T15 peptide: SLAPIMWQLY
In words: cytokine release.

In assay [16] the target is T16, TCL1 70-79, alanine replacement at position 4 peptide on HLA-A*02:01 (human).
T16 peptide: SLLAIMWQLY
In words: cytokine release.

Assay [17] concerns the target T17, TCL1 70-79, alanine replacement at position 5 peptide on HLA-A*02:01 (human).
T17 peptide: SLLPAMWQLY
In words: cytokine release.

For assay [18], the target named is T18, TCL1 70-79, alanine replacement at position 6 peptide on HLA-A*02:01 (human).
T18 peptide: SLLPIAWQLY
In words: cytokine release.

Assay [19] has as its target T19, TCL1 70-79, alanine replacement at position 7 peptide on HLA-A*02:01 (human).
T19 peptide: SLLPIMAQLY
In words: cytokine release.

Assay [20] deals with T20, TCL1 70-79, alanine replacement at position 8 peptide on HLA-A*02:01 (human).
T20 peptide: SLLPIMWALY
Nature of the assay: cytokine release.

For assay [21], the target named is T21, TCL1 peptide on HLA-A*02:01 (human).
T21 peptide: SLLPIMWQLY
Nature of the assay: multimer staining.

B1: TCL1-TCR (TCR, V domains shown)
Valpha: GQSLEQPSEVTAVEGAIVQINCTYQTSGFYGLSWYQQHDGGAPTFLSYNGLDGLEETGRFSSFLSRSDSYGYLLLQELQMKDSASYFCLLGSGAGSYQLTFGKGTKLSVIP
Vbeta: DAGVTQSPTHLIKTRGQHVTLRCSPISGHKSVSWYQQVLGQGPQFIFQYYEKEERGRGNFPDRFSARQFPNYSSELNVNALLLGDSALYLCASSFTDGGTYEQYFGPGTRLTVT
Turning to B1, the binding result is given as “no recognition” in assay [1]; “recognises” in assay [2]; “recognises” in assay [3]; “no recognition” in assay [4]; “no recognition” in assay [5]; “no recognition” in assay [6]. In addition, the binding result in assay [7] was “no recognition”; in [8] it was “no recognition”; in [9], “no recognition”; in assay [10] it was “no recognition”; in [11], “recognises”; in assay [12] it was “no recognition”. Also, the binding result was “recognises” in assay [13]; “no recognition” in assay [14]; “no recognition” in [15]; “no recognition” in assay [16]; “no recognition” in [17]; “no recognition” in [18]. The binding result is “no recognition” in assay [19], “no recognition” in [20] and “recognises” in assay [21].

(Values after patent US20210130431A1 (published 2021).)
